Results reported in article PMC9168836, “Clamping of DNA shuts the condensin neck gate” (Proceedings of the National Academy of Sciences of the …, 2021).

Columns and labels:
[1] = target: T1, Smc4-3xStrepII (budding yeast (S. cerevisiae), UniProt Q12267 1-1418); assay: cryo-EM structure; condensin pentamer (Smc2, Smc4, Brn1, Ycs4, Ycg1) with 80-bp dsDNA, 5 mM ADP, 1 mM BeSO4, 10 mM NaF in TNT buffer pH 7.5; separate maps of the clamped head module and of Ycg1-DNA; conditions: both partners purified
T1 construct: Smc4, SMC subunit of budding yeast (S. cerevisiae) condensin; only the head domain, proximal coiled coil and residues 126-144 are resolved in the maps; The tag's end is read from the plasmid's name SMC4-3xStrepII; also called Scm4
T1 sequence: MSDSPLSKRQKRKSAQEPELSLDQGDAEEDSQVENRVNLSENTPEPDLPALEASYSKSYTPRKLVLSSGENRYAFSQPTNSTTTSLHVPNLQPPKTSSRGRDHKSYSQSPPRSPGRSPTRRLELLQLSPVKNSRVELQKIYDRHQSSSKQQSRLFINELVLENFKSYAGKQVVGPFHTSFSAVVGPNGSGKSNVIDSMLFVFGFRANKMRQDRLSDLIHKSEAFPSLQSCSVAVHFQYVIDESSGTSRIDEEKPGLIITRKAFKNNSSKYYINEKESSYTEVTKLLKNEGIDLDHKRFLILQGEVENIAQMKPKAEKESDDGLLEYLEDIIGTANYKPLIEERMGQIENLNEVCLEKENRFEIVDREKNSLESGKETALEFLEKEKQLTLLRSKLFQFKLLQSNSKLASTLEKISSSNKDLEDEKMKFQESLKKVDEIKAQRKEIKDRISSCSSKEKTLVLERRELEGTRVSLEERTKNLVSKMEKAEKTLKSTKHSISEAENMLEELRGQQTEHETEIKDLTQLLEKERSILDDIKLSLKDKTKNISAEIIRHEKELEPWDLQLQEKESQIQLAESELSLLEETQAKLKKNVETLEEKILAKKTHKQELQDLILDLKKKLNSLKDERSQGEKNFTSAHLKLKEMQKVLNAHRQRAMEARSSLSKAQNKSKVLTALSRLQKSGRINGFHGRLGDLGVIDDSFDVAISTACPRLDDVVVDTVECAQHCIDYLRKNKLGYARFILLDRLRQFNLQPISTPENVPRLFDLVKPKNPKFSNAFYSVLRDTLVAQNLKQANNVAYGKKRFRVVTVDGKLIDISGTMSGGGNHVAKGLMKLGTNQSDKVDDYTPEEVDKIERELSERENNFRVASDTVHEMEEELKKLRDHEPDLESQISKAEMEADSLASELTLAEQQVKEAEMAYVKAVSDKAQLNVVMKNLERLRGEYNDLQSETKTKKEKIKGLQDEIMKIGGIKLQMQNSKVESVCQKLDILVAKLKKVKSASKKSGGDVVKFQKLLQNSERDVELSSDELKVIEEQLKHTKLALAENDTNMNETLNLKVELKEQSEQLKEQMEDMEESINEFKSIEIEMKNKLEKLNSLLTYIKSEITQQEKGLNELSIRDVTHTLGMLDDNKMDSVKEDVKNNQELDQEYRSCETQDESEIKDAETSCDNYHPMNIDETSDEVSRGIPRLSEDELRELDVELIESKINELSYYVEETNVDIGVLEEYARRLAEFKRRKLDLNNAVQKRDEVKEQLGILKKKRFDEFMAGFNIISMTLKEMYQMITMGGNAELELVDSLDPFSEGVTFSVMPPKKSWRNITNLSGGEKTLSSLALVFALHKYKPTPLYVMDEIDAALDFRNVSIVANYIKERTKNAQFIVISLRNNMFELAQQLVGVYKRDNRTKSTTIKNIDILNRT

[2] = target: T2, Ycg1 (budding yeast (S. cerevisiae), UniProt Q06680 1-1035); assay: as above; conditions: both partners purified
T2 construct: Ycg1, HAWK (HEAT repeat) subunit of budding yeast (S. cerevisiae) condensin
T2 sequence: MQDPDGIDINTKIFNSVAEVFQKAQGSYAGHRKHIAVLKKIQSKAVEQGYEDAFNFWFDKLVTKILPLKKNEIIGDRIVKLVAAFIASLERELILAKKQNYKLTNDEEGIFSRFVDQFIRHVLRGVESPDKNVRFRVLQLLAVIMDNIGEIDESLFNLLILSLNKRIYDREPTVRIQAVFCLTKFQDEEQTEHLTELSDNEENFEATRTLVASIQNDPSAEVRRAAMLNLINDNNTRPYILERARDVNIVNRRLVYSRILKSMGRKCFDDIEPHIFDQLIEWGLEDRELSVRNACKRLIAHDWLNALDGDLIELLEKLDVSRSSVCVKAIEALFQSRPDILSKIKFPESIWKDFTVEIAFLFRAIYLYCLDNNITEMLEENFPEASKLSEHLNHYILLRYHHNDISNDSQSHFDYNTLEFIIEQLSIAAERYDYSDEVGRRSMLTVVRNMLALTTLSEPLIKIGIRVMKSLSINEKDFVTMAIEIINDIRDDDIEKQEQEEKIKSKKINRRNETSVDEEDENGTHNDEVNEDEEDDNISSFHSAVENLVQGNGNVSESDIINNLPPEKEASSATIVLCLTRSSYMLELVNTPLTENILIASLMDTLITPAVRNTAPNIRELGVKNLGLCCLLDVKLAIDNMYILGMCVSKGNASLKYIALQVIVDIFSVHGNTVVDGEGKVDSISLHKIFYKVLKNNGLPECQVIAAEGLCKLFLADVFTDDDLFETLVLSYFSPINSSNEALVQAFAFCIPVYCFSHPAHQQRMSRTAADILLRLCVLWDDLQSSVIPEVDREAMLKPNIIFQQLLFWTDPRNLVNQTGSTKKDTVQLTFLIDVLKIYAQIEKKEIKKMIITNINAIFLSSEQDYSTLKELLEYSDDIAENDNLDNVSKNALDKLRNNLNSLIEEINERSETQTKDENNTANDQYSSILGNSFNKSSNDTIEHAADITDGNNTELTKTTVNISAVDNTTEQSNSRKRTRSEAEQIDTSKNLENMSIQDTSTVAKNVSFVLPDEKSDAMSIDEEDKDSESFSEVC

binding result [1]: binds
binding result [2]: binds
B1: Brn1-HA3-His12 (natural protein, budding yeast (S. cerevisiae), UniProt P38170 1-754, looked up)
chain: MTTQLRYENNDDDERVEYNLFTNRSTMMANFEEWIKMATDNKINSRNSWNFALIDYFYDLDVLKDGENNINFQKASATLDGCIKIYSSRVDSVTTETGKLLSGLAQRKTNGASNGDDSNGGNGEGLGGDSDEANIEIDPLTGMPISNDPDVNNTRRRVYNRVLETTLVEFETIKMKELDQELIIDPLFKKALVDFDEGGAKSLLLNTLNIDNTARVIFDASIKDTQNVGQGKLQRKEEELIERDSLVDDENEPSQSLISTRNDSTVNDSVISAPSMEDEILSLGMDFIKFDQIAVCEISGSIEQLRNVVEDINQAKDFIENVNNRFDNFLTEEELQAAVPDNAEDDSDGFDMGMQQELCYPDENHDNTSHDEQDDDNVNSTTGSIFEKDLMAYFDENLNRNWRGREHWKVRNFKKANLVNKESDLLEETRTTIGDTTDKNTTDDKSMDTKKKHKQKKVLEIDFFKTDDSFEDKVFASKGRTKIDMPIKNRKNDTHYLLPDDFHFSTDRITRLFIKPGQKMSLFSHRKHTRGDVSSGLFEKSTVSANHSNNDIPTIADEHFWADNYERKEQEEKEKEQSKEVGDVVGGALDNPFEDDMDGVDFNQAFEGTDDNEEASVKLDLQDDEDHKFPIRENKVTYSRVSKKVDVRRLKKNVWRSINNLIQEHDSRKNREQSSNDSETHTEDESTKELKFSDIIQGISKMYSDDTLKDISTSFCFICLLHLANEHGLQITHTENYNDLIVNYEDLATTQAAS
notes: Brn1, kleisin subunit of budding yeast (S. cerevisiae) condensin; 754 residues as printed (279/754 traced in the head module map); The tags' end is read from the plasmid's name BRN1-HA3-His12; also called kleisin Brn1
